Test results reported in patent US20240293553A1, “P-SELECTIN INHIBITORS AND USES THEREOF” (Beth Israel Deaconess Medical Center, Inc., priority 2021, published 2024).
Square brackets hold non-standard residues; d marks the D form. Ends that are not written are not given here. F∗ = phenylalanine sulfonate

Biological target: human P-selectin-Ig chimera (human) (UniProt P16109)
Assay: SPR (Biacore): biotinylated ligand on streptavidin chip, P-selectin-Ig flowed at 0.4-100 nM

Sequence of human P-selectin-Ig chimera (human) (P16109 42-771, change not shown): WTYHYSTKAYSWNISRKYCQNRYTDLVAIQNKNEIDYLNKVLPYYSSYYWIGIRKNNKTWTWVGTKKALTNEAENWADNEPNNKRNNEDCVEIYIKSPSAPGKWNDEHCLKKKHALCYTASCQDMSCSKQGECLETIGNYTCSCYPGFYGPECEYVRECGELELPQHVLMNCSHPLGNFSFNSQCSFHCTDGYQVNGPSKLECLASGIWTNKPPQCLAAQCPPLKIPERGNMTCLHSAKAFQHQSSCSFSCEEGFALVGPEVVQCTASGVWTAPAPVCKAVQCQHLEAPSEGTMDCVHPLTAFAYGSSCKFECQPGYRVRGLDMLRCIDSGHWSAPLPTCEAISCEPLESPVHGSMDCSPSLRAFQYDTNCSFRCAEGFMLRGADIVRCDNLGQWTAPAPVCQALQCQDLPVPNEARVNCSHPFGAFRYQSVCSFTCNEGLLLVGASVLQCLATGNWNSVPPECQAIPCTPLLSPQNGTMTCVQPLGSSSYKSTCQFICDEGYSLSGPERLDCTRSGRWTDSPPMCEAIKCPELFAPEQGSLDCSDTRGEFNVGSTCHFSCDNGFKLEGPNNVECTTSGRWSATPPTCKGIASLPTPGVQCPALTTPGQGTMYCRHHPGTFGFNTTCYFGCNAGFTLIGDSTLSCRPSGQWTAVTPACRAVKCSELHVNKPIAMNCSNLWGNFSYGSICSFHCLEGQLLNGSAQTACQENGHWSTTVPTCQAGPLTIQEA

B1: GSnP-6 (peptide)
peptide: KE[F∗]E[F∗]LD[F∗]DFLPET(Neu5Acα2‑3Galβ1‑4(Fucα1-3)GlcNAcβ1‑6(Galβ1-3)GalNAcα)EPL
  Kd: 27 nM
